In PMC6211762:

Biological target: Macrobrachium rosenbergii nodavirus (MrNV) capsid protein, recombinant, assembled into virus-like particles (Macrobrachium rosenbergii nodavirus)
Assay: cryo-EM structure; MrNV VLPs at approximately 0.2 mg/ml, vitrified on thin continuous carbon films; Titan Krios; icosahedral reconstruction at 3.3 Å from 40,883 particles; atomic model of the asymmetric unit

Substance: Macrobrachium rosenbergii nodavirus (MrNV) capsid protein, recombinant, assembled into virus-like particles (natural protein)
- stoichiometry N: 180
